Experimental data taken from article PMC12990809.

Assays:
Experiment in all cases: pulldown
[1] = target: T1, Smp_032060 (Schistosoma mansoni) (UniProt G4LYM0); details: 20 nM protein, 1.5 uM RNA pool; 20 mM HEPES pH 7.8, 70 mM KCl, 10 mM NaCl, 10% glycerol, 2 mM DTT, 0.1 ug/uL BSA; 30 min, 4 C
T1 sequence: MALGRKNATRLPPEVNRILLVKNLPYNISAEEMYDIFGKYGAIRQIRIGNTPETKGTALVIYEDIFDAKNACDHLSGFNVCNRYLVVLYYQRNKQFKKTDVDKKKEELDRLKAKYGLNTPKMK

[2] = target: T2, CBG15837 R479I (Caenorhabditis briggsae) (UniProt A8XMX3); details: 20 nM protein, 1.5 uM RNA pool; 20 mM HEPES pH 7.8, 70 mM KCl, 10 mM NaCl, 10% glycerol, 2 mM DTT, 0.1 ug/uL BSA; 30 min, 4 C
T2 sequence: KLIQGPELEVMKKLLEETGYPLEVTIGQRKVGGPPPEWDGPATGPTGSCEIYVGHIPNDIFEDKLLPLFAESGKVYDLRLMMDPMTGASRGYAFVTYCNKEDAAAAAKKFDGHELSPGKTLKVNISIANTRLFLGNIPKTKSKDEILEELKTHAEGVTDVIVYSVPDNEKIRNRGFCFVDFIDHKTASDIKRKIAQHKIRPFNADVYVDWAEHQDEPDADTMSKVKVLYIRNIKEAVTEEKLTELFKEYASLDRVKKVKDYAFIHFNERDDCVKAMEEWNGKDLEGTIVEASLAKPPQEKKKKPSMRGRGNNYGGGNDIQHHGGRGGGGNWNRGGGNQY

HNRNPA1L2 (Homo sapiens) = HNRNPA1L2 (Homo sapiens) (UniProt Q32P51); details: 20 nM protein, 1.5 uM RNA pool; 20 mM HEPES pH 7.8, 70 mM KCl, 10 mM NaCl, 10% glycerol, 2 mM DTT, 0.1 ug/uL BSA; 30 min, 4 C (protocol of this paper; not …); cited from earlier work
HNRNPA1L2 (Homo sapiens), sequence (Q32P51 1-226): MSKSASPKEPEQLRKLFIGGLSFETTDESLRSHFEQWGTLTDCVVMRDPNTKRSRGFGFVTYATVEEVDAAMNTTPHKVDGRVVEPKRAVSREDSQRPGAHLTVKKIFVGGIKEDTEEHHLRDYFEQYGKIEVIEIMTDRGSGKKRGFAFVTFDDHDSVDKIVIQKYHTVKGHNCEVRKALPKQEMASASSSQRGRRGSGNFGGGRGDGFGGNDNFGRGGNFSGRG

[3] = test system: T3, PK15111.1 (Cannabis sativa); details: 20 nM protein, 1.5 uM RNA pool; 20 mM HEPES pH 7.8, 70 mM KCl, 10 mM NaCl, 10% glycerol, 2 mM DTT, 0.1 ug/uL BSA; 30 min, 4 C
T3 sequence: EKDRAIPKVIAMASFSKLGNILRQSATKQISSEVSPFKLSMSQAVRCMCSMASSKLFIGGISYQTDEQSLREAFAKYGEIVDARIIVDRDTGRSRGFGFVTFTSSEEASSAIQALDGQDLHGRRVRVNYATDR

[4] = target: T4, SCL30 (Arabidopsis thaliana) (UniProt Q8L3X8); details: 20 nM protein, 1.5 uM RNA pool; 20 mM HEPES pH 7.8, 70 mM KCl, 10 mM NaCl, 10% glycerol, 2 mM DTT, 0.1 ug/uL BSA; 30 min, 4 C
T4 sequence: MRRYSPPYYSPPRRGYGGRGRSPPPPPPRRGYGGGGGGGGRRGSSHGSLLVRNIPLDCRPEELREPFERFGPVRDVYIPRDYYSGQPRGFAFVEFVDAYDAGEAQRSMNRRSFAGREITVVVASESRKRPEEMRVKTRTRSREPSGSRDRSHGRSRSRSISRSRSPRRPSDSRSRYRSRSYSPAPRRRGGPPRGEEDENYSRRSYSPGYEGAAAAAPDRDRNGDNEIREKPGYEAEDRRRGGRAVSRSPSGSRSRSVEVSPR

[5] = target: T5, PK23225.1 P17S (Cannabis sativa) (UniProt A0A7J6EWR7); details: 20 nM protein, 1.5 uM RNA pool; 20 mM HEPES pH 7.8, 70 mM KCl, 10 mM NaCl, 10% glycerol, 2 mM DTT, 0.1 ug/uL BSA; 30 min, 4 C
T5 sequence: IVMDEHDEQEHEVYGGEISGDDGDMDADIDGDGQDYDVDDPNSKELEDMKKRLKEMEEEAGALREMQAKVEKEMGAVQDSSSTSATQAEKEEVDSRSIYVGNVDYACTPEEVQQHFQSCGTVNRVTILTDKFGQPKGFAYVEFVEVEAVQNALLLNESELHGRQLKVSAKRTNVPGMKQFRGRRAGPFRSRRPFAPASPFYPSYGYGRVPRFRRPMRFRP

[6] = target: T6, PFI1175c (Plasmodium falciparum) (UniProt Q8I2R8); details: 20 nM protein, 1.5 uM RNA pool; 20 mM HEPES pH 7.8, 70 mM KCl, 10 mM NaCl, 10% glycerol, 2 mM DTT, 0.1 ug/uL BSA; 30 min, 4 C
T6 sequence: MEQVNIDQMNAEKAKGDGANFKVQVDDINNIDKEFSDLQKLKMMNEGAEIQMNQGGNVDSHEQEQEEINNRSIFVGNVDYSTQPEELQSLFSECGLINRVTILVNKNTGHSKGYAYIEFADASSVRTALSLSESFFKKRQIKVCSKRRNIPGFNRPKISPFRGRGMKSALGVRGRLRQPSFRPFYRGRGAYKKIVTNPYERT

[7] = target: T7, rsp-2 (Caenorhabditis elegans) (UniProt Q23120); details: 20 nM protein, 1.5 uM RNA pool; 20 mM HEPES pH 7.8, 70 mM KCl, 10 mM NaCl, 10% glycerol, 2 mM DTT, 0.1 ug/uL BSA; 30 min, 4 C
T7 sequence: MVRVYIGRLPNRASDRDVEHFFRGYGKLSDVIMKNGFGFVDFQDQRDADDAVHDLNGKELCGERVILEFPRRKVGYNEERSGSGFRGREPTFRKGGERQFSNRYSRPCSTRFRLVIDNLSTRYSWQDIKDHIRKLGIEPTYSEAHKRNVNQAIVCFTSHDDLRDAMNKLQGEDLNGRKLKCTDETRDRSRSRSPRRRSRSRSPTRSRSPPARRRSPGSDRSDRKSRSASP

[8] = target: T8, PK27686.1 K290R (Cannabis sativa) (UniProt A0A7J6ICA3); details: 20 nM protein, 1.5 uM RNA pool; 20 mM HEPES pH 7.8, 70 mM KCl, 10 mM NaCl, 10% glycerol, 2 mM DTT, 0.1 ug/uL BSA; 30 min, 4 C
T8 sequence: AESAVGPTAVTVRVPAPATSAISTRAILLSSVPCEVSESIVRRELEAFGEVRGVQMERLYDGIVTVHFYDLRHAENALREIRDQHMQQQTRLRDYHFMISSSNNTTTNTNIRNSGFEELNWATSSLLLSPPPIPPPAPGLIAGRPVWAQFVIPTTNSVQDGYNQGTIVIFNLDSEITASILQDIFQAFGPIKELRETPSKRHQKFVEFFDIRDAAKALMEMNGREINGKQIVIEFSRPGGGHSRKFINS

[9] = target: T9, PK15181.1 (Cannabis sativa) (UniProt A0A7J6E558); details: 20 nM protein, 1.5 uM RNA pool; 20 mM HEPES pH 7.8, 70 mM KCl, 10 mM NaCl, 10% glycerol, 2 mM DTT, 0.1 ug/uL BSA; 30 min, 4 C
T9 sequence: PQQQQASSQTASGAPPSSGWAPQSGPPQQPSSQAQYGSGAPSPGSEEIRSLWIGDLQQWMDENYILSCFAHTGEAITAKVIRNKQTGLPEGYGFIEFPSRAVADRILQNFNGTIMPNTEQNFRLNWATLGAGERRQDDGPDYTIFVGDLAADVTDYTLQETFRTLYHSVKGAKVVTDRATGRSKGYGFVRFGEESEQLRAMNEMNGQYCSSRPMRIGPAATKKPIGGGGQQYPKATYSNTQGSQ

UUUUNCC [RNAcompete motif RNCMPT00396]
binding signal (z-score (mean of top ten 7-mers)) [1]: 9.57

AAAAAUUU [RNAcompete motif RNCMPT00344]
binding signal (z-score (mean of top ten 7-mers)) [2]: 9.1

UAGGG [RNAcompete motif RNCMPT00023]
binding signal (z-score (mean of top ten 7-mers)) (HNRNPA1L2 (Homo sapiens)): 7.23

AAGUAGA [RNAcompete motif RNCMPT00368]
binding signal (z-score (mean of top ten 7-mers)) [3]: 6.73

AGAAGA [RNAcompete motif RNCMPT00382]
binding signal (z-score (mean of top ten 7-mers)) [4]: 7.94

AAAAAGA [RNAcompete motif RNCMPT00370]
binding signal (z-score (mean of top ten 7-mers)) [5]: 12

AAAAAGA [RNAcompete motif RNCMPT00380]
binding signal (z-score (mean of top ten 7-mers)) [6]: 9.25

GGAGGAG [RNAcompete motif RNCMPT00352]
binding signal (z-score (mean of top ten 7-mers)) [7]: 9.21

AAUUUU [RNAcompete motif RNCMPT00349]
binding signal (z-score (mean of top ten 7-mers)) [8]: 14.6

UUUUUU [RNAcompete motif RNCMPT00345]
binding signal (z-score (mean of top ten 7-mers)) [9]: 9.71
